Here are results for one protein from US20080085863A1 (WISCONSIN ALUMNI RESEARCH FOUNDATION, published 2008).

The target in data set [1] is T1, human α2-macroglobulin from plasma (Sigma-Aldrich).
T1 chain: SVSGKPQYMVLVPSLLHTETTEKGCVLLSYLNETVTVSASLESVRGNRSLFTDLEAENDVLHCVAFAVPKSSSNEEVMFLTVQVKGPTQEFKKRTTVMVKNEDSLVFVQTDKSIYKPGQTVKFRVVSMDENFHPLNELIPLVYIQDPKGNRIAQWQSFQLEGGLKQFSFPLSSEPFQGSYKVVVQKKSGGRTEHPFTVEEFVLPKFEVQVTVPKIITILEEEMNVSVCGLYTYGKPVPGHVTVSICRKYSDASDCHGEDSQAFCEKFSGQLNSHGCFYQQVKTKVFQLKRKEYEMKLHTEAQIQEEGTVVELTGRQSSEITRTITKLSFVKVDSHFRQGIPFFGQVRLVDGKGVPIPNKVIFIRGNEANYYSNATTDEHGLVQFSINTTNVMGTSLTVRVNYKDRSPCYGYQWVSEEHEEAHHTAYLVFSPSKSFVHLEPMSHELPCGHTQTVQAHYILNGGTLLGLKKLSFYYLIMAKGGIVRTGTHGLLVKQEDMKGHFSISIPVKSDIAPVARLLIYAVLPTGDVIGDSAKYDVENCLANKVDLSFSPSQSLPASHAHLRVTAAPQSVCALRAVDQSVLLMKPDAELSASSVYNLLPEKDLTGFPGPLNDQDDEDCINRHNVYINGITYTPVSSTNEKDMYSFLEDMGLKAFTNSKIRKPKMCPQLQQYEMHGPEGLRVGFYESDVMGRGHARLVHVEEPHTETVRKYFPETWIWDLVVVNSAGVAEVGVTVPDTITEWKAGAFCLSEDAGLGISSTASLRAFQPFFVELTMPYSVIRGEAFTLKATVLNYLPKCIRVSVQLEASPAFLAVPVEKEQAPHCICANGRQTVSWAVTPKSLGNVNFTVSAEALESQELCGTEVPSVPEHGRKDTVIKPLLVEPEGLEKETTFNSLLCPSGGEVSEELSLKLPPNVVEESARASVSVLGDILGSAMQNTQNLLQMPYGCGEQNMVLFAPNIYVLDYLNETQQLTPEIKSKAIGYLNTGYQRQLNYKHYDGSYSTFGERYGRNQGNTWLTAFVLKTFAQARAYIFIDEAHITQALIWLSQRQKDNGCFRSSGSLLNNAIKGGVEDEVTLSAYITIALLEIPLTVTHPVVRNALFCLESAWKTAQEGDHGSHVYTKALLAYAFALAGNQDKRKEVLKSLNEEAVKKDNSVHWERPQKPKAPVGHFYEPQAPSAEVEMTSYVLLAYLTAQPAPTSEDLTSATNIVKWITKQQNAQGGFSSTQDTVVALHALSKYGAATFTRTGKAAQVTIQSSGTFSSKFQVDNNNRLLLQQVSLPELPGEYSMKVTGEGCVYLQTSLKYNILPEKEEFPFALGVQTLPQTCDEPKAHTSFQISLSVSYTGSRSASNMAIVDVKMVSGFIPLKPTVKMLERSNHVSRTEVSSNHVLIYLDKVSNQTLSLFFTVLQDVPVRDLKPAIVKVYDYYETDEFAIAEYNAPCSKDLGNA
As to the kind of experiment: 2 hour co-incubation of 40 nM 35S-BMP-1 with 40 nM α2M, SDS-PAGE autofluorogram.

Data set [2] has as its target T2, recombinant mutant α2-macroglobulin with the native bait region replaced by sequences flanking the human probiglycan BMP-1 cleavage site (b-α2M).
T2 chain: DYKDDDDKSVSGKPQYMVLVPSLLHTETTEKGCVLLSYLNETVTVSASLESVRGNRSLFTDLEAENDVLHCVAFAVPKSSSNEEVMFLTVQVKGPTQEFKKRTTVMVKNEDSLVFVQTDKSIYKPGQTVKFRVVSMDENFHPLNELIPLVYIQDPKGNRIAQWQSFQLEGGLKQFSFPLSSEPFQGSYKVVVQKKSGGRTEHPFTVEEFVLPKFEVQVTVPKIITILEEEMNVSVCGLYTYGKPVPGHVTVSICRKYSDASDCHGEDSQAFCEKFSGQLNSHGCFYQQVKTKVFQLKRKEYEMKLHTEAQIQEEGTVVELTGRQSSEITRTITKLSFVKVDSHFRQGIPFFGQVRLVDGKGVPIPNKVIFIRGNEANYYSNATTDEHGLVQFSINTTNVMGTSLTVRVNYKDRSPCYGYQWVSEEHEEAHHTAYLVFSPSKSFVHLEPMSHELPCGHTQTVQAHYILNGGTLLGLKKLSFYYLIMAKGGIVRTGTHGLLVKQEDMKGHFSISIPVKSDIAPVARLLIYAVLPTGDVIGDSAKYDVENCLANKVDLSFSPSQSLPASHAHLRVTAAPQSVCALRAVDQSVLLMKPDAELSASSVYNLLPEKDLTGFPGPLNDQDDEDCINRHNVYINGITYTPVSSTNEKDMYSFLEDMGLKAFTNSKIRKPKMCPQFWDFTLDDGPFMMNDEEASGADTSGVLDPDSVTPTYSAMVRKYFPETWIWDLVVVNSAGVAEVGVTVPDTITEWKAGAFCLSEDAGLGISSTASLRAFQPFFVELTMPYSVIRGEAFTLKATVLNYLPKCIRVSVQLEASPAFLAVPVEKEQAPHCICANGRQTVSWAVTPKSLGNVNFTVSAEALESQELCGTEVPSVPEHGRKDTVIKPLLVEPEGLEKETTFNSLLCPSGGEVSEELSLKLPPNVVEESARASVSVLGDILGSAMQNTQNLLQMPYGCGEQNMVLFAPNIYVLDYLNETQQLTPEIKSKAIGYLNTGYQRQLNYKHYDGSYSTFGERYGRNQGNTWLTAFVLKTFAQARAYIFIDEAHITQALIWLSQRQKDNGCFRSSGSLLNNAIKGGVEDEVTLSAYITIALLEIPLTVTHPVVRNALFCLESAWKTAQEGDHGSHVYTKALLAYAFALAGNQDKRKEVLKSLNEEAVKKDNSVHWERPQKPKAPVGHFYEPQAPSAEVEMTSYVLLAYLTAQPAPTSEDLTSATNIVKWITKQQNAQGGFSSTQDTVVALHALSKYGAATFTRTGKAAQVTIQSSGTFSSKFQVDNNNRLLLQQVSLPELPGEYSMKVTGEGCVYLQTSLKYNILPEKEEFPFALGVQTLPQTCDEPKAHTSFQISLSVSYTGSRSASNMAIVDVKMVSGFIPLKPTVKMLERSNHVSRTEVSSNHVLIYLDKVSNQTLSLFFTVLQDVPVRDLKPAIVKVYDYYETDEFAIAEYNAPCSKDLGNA
The description is as above.

In data set [3] the target is T3, recombinant wild type α2-macroglobulin (FLAG-tagged).
T3 chain: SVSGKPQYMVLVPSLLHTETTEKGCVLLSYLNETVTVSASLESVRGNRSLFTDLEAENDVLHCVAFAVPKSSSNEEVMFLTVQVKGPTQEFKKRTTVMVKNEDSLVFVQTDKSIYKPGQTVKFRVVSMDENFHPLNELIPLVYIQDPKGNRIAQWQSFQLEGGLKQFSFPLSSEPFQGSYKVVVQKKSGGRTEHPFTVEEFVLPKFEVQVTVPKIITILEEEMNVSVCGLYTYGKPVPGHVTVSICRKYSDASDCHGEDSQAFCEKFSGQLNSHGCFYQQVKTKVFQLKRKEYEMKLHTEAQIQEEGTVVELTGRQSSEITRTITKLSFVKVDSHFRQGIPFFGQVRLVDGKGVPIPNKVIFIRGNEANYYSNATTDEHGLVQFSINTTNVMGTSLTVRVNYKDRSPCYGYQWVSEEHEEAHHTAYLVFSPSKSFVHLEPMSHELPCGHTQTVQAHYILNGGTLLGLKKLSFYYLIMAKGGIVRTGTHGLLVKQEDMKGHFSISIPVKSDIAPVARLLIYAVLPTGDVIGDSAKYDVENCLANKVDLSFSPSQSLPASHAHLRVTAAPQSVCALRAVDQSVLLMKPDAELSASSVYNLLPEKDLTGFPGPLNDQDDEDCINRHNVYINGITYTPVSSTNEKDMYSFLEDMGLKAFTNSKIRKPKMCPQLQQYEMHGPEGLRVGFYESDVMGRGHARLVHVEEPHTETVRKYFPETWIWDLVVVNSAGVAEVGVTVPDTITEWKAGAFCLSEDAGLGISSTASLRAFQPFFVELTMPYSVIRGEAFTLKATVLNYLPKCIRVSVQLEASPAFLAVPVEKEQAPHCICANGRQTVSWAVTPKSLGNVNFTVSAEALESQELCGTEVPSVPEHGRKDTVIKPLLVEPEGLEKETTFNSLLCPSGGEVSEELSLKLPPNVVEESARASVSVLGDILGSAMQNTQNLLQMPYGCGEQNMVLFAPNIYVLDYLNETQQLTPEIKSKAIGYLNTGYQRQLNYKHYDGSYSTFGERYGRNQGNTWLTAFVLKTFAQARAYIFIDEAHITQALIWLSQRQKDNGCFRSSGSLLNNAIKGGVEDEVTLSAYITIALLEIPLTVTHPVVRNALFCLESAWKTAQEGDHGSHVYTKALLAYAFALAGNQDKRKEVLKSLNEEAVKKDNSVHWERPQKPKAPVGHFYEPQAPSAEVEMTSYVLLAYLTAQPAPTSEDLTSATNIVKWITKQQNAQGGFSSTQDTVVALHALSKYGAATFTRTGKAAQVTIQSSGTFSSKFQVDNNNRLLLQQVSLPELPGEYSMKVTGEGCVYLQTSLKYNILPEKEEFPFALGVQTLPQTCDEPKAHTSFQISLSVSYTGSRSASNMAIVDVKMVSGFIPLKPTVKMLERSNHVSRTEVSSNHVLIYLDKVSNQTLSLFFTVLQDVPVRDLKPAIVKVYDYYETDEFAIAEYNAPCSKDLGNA
The description is as above.

Data set [4] addresses T4, methylamine-treated human α2-macroglobulin.
T4 chain: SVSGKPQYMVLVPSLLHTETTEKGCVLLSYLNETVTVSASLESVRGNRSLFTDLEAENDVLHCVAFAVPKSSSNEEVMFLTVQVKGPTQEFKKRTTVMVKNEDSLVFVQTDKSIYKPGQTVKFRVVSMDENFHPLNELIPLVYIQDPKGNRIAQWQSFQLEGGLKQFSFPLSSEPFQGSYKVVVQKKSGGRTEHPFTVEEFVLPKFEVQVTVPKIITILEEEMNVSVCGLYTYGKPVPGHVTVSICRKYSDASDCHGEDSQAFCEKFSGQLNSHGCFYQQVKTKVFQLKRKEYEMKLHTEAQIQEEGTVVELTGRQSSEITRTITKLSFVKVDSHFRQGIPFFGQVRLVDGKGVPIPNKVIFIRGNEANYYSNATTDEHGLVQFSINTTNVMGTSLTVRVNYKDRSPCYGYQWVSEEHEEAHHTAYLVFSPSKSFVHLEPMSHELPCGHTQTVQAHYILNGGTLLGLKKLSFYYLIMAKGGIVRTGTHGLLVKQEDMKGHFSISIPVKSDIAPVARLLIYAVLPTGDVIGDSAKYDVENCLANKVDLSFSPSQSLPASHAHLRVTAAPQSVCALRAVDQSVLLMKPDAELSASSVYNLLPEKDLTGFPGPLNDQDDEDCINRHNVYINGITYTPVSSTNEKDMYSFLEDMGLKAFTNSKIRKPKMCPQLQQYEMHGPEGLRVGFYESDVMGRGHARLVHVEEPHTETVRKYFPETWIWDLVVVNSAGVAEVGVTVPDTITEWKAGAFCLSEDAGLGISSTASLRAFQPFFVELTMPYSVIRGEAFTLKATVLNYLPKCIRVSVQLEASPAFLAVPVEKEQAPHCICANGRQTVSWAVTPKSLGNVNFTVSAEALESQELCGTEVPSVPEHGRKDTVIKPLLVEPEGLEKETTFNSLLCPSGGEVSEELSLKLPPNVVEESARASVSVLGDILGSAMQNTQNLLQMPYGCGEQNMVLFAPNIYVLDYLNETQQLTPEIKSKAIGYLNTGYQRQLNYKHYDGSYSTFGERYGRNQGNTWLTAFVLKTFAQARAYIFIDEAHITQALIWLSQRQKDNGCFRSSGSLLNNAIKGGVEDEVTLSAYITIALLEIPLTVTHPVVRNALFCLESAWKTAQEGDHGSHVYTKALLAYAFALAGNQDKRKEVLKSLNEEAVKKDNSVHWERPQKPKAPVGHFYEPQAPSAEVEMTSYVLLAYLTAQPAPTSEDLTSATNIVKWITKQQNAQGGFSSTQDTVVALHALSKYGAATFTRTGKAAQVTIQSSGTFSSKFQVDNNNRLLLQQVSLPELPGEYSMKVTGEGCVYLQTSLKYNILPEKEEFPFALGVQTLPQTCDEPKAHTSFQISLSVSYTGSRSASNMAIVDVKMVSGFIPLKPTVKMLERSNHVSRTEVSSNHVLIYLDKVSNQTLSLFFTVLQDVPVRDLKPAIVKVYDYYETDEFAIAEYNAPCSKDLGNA

Data set [5] has as its target T2, recombinant mutant α2-macroglobulin ….

B1: Flag-tagged recombinant bone morphogenetic protein-1 (BMP-1) (protein)
chain: AATSRPERVWPDGVIPFVIGGNFTGSQRAVFRQAMRHWEKHTCVTFLERTDEDSYIVFTYRPCGCCSYVGRRGGGPQAISIGKNCDKFGIVVHELGHVVGFWHEHTRPDRDRHVSIVRENIQPGQEYNFLKMEPQEVESLGETYDFDSIMHYARNTFSRGIFLDTIVPKYEVNGVKPPIGQRTRLSKGDIAQARKLYKCPACGETLQDSTGNFSSPEYPNGYSAHMHCVWRISVTPGEKIILNFTSLDLYRSRLCWYDYVEVRDGFWRKAPLRGRFCGSKLPEPIVSTDSRLWVEFRSSSNWVGKGFFAVYEAICGGDVKKDYGHIQSPNYPDDYRPSKVCIWRIQVSEGFHVGLTFQSFEIERHDSCAYDYLEVRDGHSESSTLIGRYCGYEKPDDIKSTSSRLWLKFVSDGSINKAGFAVNFFKEVDECSRPNRGGCEQRCLNTLGSYKCSCDPGYELAPDKRRCEAACGGFLTKLNGSITSPGWPKEYPPNKNCIWQLVAPTQYRISLQFDFFETEGNDVCKYDFVEVRSGLTADSKLHGKFCGSEKPEVITSQYNNMRVEFKSDNTVSKKGFKAHFFSEKRPALQPPRGRPHQLKFRVQKRNRTPQ
For the protein B1, the “percent of BMP-1 incorporated into complexes” value is given as 28% of sample in data set [1], 42% of sample in data set [2] and 12% of sample in data set [3]. Besides, the “cleavage of α2M by BMP-1 (SDS-PAGE)” value in data set [4] was “BMP-1 was unable to cleave methylamine-treated α2M”. Further, in data set [5], the “cleavage of α2M by BMP-1 (Western blot, time course)” value is “b-α2M is cleaved by BMP-1 more readily than recombinant wild-type α2M (rα2M)”.
